Data: patent US20230192853A1 (Genentech, published 2023)

Experiments:
[1] = molecular target: T1, rhesus monkey CD8 in CD8-rich tissues (in vivo) (rhesus monkey, UniProt P01732 23-235 (human entry)); test: PET imaging in rhesus monkey
T1 construct: the target was seen by PET in lymph nodes, thymus and spleen; also called rhesus CD8
Protocol: Imaging experiments were performed with ¹⁸F-anti-CD8 VHH in a rhesus monkey to determine whether uptake could be detected in tissues that are normally CD8-rich. A rhesus monkey (2.5 kg) was injected with 64 micrograms ¹⁸F-anti-CD8 VHH containing a 1.2 mCi radiation dose.

[2] = molecular target: T2, human CD8 on cells (HPBALL cells, TALL1 cells, CD8+ T cells of human whole blood and PBMCs) (human, UniProt P01732 22-234); test: PET MIP of TALL1 tumor xenografted mice
T2 construct: also called huCD8
T2 sequence (P01732 22-234 limits assumed): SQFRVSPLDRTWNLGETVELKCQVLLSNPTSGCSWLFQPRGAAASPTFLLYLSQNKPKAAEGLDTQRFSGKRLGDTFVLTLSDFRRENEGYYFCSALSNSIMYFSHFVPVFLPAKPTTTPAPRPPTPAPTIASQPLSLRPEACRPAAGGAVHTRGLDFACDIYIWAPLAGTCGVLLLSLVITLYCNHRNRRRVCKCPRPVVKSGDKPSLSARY

[3] = molecular target: T3, one-armed single chain cynoCD8α/cynoCD8β-Fc (cynomolgus monkey); test: SPR, Biacore T200, 37°C, CD8αβ-Fc captured, VHH as analyte
T3 construct: the whole entry is named; also called Cyno CD8αβ; CD8αβ-Fc; not shown: linker between CD8α and CD8β; not described; one polypeptide chain of an Fc (captured with an anti-HuIgG1 Fc kit); second Fc chain without fusion (one-armed format)
T3 sequence (P01732 other isoform, or with tags, fused parts or gaps): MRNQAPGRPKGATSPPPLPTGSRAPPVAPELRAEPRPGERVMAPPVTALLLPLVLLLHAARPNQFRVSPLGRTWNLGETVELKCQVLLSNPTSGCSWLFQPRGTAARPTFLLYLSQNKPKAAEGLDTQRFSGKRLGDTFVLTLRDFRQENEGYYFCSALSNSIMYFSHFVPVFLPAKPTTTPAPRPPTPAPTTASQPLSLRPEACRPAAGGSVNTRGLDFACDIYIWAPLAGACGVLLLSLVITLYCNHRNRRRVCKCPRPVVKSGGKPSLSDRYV
Protocol: (§1) The binding affinity for each VHH variant to both human (a one-armed single chain huCD8α/huCD8β-Fc) and cynomolgus monkey (a one-armed single chain cynoCD8α/cynoCD8β-Fc) were determined by Surface Plasmon Resonance (SPR). SPR experiments were carried out on the Biacore T200 (GE Healthcare) at 37° C. using HBS-P+ (GE Healthcare) running buffer. 1.5 μg/mL of CD8αβ-Fc was captured using an anti-HuIgG1 Fc capture kit (GE Healthcare) and monomeric VHHs were added as the analyte in solution at a flow rate of 100 μL/min. The VHH was titrated using a dilution series from 100-0 nM. Sensorgrams were fit to a 1:1 Langmuir model to identify kinetic parameters, including KD, kₒₙ and koff.

[4] = molecular target: T4, one-armed single chain huCD8α/huCD8β-Fc (human, UniProt P10966 22-170); test: as above
T4 construct: the whole entry is named; also called Human CD8αβ; CD8αβ-Fc; not shown: linker between CD8α and CD8β; not described; one polypeptide chain of an Fc (captured with an anti-HuIgG1 Fc kit); second Fc chain without fusion (one-armed format)
T4 sequence (P10966 other isoform, or with tags, fused parts or gaps): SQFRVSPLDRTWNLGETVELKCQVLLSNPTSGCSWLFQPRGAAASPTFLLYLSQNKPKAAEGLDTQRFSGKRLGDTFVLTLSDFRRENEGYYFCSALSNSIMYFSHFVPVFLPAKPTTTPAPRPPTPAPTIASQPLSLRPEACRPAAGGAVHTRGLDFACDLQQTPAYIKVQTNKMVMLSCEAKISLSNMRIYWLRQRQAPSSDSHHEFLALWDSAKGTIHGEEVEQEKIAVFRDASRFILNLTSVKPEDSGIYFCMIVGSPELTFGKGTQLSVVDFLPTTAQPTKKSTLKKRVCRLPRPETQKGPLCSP
Protocol: as §1

[5] = molecular target: T5, huCD8a-Fc (C-terminal hFc-tagged human CD8α receptor) (human, UniProt P01732 22-182); test: SPR
T5 construct: the whole entry is named; also called CD8α-Fc; CD8α-hFc; not shown: human Fc tag at the C-terminus
T5 sequence (P01732 22-182 limits assumed): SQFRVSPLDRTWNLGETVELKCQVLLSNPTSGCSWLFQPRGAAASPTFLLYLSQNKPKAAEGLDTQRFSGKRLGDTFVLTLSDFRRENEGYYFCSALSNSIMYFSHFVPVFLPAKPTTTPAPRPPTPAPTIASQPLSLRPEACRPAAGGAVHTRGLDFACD

[6] = molecular target: T4, one-armed single chain huCD8α/huCD8β-Fc; test: affinity measurement, method not named in the sentence (SPR per paragraph 284)

T1 sequence (P01732 other isoform, or with tags, fused parts or gaps limits assumed): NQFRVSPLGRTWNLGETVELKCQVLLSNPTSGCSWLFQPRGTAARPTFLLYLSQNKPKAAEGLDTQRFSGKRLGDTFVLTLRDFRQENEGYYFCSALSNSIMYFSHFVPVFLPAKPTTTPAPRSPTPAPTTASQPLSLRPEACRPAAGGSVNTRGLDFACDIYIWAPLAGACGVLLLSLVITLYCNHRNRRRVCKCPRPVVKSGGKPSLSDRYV

Kd [3] [nM]	koff [3] [s⁻¹]	kon [3] [M⁻¹ s⁻¹]	Kd [4] [nM]	koff [4] [s⁻¹]	kon [4] [M⁻¹ s⁻¹]	Binder	also measured
						18F-control VHH (18F-AlF-RESCA-modified 2C8v145) (VHH, RESCA chelator (Formula (I)) carrying [18F]-aluminum fluoride; site not stated) VHH: EVQLVESGGGLVQPGGSLRLSCAASGFTFDDYAIGWFRQAPGKGREGVACIRIFDRHTYYADSVKGRFTISSDNSKNTVYLQMNSLRAEDTATYYCAAGFFSGCTRPEGDMDYFGQGTLVQVQS	binding result [1]: no binding; binding result [2]: no binding
0.137	0.0019	1.39e+07	0.0497	0.000845	1.7e+07	2C8v144 VHH (VHH, also called hu2C8v144) VHH: EVQLVESGGGLVQPGGSLRLSCAASGFTFDDYAIGWFRQAPGKGREGVACIRIFDRHTYYADSVKGRFTISSDNSKNTVYLQMNSLRAEDTATYYCAAGSFWGCTRPEGDMDYFGQGTLVQVQS	
0.344	0.0037	1.09e+07	0.132	0.00176	1.34e+07	2C8v142 VHH (VHH, also called hu2C8v142) VHH: EVQLVESGGGLVQPGGSLRLSCAASGFTFDDYVIGWFRQAPGKGREGVACIRIFDRHTYYADSVKGRFTISSDNSKNTVYLQMNSLRAEDTATYYCAAGSFFGCTRPEGDMDYFGQGTLVQVQS	
						2C8 VHH (llama anti-CD8 VHH wt2C8) (VHH, Monomeric VHH; VHHs were made both with a C-terminal His tag and tagless; also called 2C8.1-H; wild-type 2C8) VHH: EVQLVESGGGLVQAGGSLRLSCAASGFTFDDYAIGWFRQAPGKGREGVLCIRIFDRHTYSADSVKGRFTISSDNAQNTVYLHMNSLKPEDTAVYYCAAGSFWACTRPEGAMDYWGKGTQVTVSS	binding result [5]: binds
						2C8 with the A99G and A100fD mutations (VHH, name in Kabat numbering) VHH: EVQLVESGGGLVQAGGSLRLSCAASGFTFDDYAIGWFRQAPGKGREGVLCIRIFDRHTYSADSVKGRFTISSDNAQNTVYLHMNSLKPEDTAVYYCAAGSFWGCTRPEGDMDYWGKGTQVTVSS	fold improvement of affinity against the parental clone 2C8 [6]: ~10 fold
